In the supplement of paper PMC5998384:

How the values were obtained:
HeLa Kyoto [1] = assay: solubility in G1/S (NP-40 vs SDS abundance) (log2 ratio); higher = more soluble; conditions: cell cycle stage: G1/S
HeLa Kyoto [2] = assay: melting temperature (median over replicates), in situ; higher = more thermally stable
HeLa Kyoto [3] = assay: solubility change mitosis vs G1/S (difference of NP-40 vs SDS log2 ratios) (log2 ratio difference); higher = more soluble in mitosis
HeLa Kyoto [4] = assay: thermal stability score vs G1/S (z-score of summed log2 fold changes over temperatures); higher = more thermally stable than in G1/S
[5] = cell cycle stage: early G1 (4.5 h after nocodazole release)
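For melting temperature (median over replicates), in situ in this document: HeLa Kyoto cells synchronized by double thymidine or nocodazole block, proteins quantified by TMT10plex mass spectrometry, three independent biological replicates.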
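For solubility change mitosis vs G1/S (difference of NP-40 vs SDS log2 ratios) in this document: synchronized HeLa Kyoto cells (double thymidine block for G1/S, nocodazole release for mitosis), protein amounts in NP-40 versus SDS lysates quantified by mass spectrometry, three biological replicates.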
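For solubility in G1/S (NP-40 vs SDS abundance) in this document: HeLa Kyoto cells arrested at G1/S by double thymidine block, proteins quantified by TMT10plex mass spectrometry in mild NP-40 versus SDS extracts, three biological replicates.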
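For thermal stability score vs G1/S (z-score of summed log2 fold changes over temperatures) in this document: synchronized HeLa Kyoto cells, proteins quantified by TMT10plex mass spectrometry, three biological replicates, mitosis taken 0.5 h after nocodazole release, G1/S directly after double thymidine block.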

COL5A2, sequence (chain, as listed by the source): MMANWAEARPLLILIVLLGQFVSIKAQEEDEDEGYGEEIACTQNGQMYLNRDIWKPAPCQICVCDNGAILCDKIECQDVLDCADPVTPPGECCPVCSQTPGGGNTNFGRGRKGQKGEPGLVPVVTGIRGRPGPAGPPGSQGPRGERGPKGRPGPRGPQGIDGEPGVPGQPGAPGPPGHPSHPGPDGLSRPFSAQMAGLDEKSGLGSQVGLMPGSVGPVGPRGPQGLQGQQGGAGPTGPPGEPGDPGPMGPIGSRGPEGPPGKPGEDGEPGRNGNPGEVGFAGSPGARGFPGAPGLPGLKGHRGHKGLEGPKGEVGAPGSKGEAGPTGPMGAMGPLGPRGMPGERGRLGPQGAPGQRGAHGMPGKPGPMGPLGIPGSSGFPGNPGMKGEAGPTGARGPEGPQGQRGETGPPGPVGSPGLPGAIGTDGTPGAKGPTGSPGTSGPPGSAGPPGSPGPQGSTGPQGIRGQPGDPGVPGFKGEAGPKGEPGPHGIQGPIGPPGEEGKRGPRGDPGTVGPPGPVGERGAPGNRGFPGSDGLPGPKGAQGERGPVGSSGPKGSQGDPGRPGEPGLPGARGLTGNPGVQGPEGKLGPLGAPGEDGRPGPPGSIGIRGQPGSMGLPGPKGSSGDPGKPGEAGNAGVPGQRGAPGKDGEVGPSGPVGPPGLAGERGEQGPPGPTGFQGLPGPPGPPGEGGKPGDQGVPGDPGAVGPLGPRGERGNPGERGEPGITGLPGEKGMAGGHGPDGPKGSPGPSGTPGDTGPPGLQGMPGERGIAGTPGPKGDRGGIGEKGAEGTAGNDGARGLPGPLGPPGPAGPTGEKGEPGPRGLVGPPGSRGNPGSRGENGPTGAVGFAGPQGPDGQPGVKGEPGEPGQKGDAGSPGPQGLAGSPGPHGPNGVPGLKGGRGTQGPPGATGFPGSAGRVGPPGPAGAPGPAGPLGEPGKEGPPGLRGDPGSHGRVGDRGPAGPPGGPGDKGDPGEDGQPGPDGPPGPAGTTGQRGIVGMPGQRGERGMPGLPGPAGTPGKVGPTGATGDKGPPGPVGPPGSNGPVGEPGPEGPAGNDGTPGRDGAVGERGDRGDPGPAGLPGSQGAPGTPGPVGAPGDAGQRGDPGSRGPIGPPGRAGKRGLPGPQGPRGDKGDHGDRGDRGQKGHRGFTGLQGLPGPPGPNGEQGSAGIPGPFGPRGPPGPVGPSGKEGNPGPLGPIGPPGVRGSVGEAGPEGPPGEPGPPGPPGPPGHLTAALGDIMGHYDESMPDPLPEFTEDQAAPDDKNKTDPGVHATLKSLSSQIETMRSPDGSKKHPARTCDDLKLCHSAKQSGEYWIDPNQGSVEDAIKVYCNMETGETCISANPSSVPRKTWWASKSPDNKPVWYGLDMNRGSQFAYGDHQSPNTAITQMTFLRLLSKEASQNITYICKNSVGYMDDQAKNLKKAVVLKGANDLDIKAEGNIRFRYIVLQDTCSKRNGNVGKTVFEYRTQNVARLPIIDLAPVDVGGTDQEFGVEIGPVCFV
ASNA1, sequence (chain, as listed by the source): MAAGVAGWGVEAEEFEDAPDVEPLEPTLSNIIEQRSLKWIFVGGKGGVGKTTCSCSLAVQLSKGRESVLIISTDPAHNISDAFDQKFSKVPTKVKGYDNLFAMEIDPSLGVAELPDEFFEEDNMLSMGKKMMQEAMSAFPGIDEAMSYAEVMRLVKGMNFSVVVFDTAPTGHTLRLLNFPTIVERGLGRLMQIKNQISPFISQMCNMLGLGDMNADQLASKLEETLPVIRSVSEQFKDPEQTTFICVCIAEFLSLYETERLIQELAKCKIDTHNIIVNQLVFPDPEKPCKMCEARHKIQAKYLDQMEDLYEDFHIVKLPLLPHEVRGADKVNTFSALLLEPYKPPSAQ
NLE1, sequence (chain, as listed by the source): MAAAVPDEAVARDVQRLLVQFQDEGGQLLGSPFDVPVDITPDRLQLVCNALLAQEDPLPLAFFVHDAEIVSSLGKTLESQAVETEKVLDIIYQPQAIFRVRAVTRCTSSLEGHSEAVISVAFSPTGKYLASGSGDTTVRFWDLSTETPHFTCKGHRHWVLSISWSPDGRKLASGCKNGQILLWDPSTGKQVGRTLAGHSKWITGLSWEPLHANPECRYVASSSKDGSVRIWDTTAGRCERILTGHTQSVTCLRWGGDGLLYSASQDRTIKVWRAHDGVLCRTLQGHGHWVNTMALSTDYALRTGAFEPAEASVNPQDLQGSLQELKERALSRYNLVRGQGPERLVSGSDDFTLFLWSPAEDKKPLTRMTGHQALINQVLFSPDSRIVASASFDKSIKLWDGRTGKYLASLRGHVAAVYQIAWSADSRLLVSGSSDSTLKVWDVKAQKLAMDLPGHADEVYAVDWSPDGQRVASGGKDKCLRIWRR

Row | Substance | solubility in G1/S (log2) (HeLa Kyoto [1]) | melting temperature (HeLa Kyoto [2]; cell cycle stage: G1/S) [°C] | melting temperature (HeLa Kyoto [2]; cell cycle stage: mitosis) [°C] | solubility change mitosis (log2) (HeLa Kyoto [3]) | thermal stability score (HeLa Kyoto [4]; [5]) | thermal stability score (HeLa Kyoto [4]; cell cycle stage: mitosis)
1 | MSSESSKKRKPKVIRSDGAPAEGKRNRSDTEQEGKYYSEEAEVDLRDPGRDYELYKYTCQELQRLMAEIQDLKSRGGKDVAIEIEERRIQSCVHFMTLKKLNRLAHIRLKKGRDQTHEAKQKVDAYHLQLQNLLYEVMHLQKEITKCLEFKSKHEEIDLVSLEEFYKEAPPDISKAEVTMGDPHQQTLARLDWELEQRKRLAEKYRECLSNKEKILKEIEVKKEYLSSLQPRLNSIMQASLPVQEYLFMPFDQAHKQYETARHLPPPLYVLFVQATAYGQACDKTLSVAIEGSVDEAKALFKPPEDSQDDESDSDAEEEQTTKRRRPTLGVQLDDKRKEMLKRHPLSVMLDLKCKDDSVLHLTFYYLMNLNIMTVKAKVTTAMELITPISAGDLLSPDSVLSCLYPGDHGKKTPNPANQYQFDKVGILTLSDYVLELGHPYLWVQKLGGLHFPKEQPQQTVIADHSLSASHMETTMKLLKTRVQSRLALHKQFASLEHGIVPVTSDCQYLFPAKVVSRLVKWVTVAHEDYMELHFTKDIVDAGLAGDTNLYYMALIERGTAKLQAAVVLNPGYSSIPPVFQLCLNWKGEKTNSNDDNIRAMEGEVNVCYKELCGPWPSHQLLTNQLQRLCVLLDVYLETESHDDSVEGPKEFPQEKMCLRLFRGPSRMKPFKYNHPQGFFSHR [THOC5] | -0.323 | 51.4 | 50.4 | 0.281 | 0.533 | 0.546
2 | MKGLYFQQSSTDEEITFVFQEKEDLPVTEDNFVKLQVKACALSQINTKLLAEMKMKKDLFPVGREIAGIVLDVGSKVSFFQPDDEVVGILPLDSEDPGLCEVVRVHEHYLVHKPEKVTWTEAAGSIRDGVRAYTALHYLSHLSPGKSVLIMDGASAFGTIAIQLAHHRGAKVISTACSLEDKQCLERFRPPIARVIDVSNGKVHVAESCLEETGGLGVDIVLDAGVRLYSKDDEPAVKLQLLPHKHDIITLLGVGGHWVTTEENLQLDPPDSHCLFLKGATLAFLNDEVWNLSNVQQGKYLCILKDVMEKLSTGVFRPQLDEPIPLYEAKVSMEAVQKNQGRKKQVVQF [CRYZL1] | 0.11 | 57 | 56.9 | -0.249 | 0.0481 | -1.74
3 | MAAAVAAAPGALGSLHAGGARLVAACSAWLCPGLRLPGSLAGRRAGPAIWAQGWVPAAGGPAPKRGYSSEMKTEDELRVRHLEEENRGIVVLGINRAYGKNSLSKNLIKMLSKAVDALKSDKKVRTIIIRSEVPGIFCAGADLKERAKMSSSEVGPFVSKIRAVINDIANLPVPTIAAIDGLALGGGLELALACDIRVAASSAKMGLVETKLAIIPGGGGTQRLPRAIGMSLAKELIFSARVLDGKEAKAVGLISHVLEQNQEGDAAYRKALDLAREFLPQGPVAMRVAKLAINQGMEVDLVTGLAIEEACYAQTIPTKDRLEGLLAFKEKRPPRYKGE [AUH] | 0.261 | 51.6 | 51.6 | -0.0164 | 0.266 | 1.09
4 | FRG1 | -0.326 | 51.2 | 51.3 | 0.0777 | 0.899 | 0.827
5 | MASPGCLWLLAVALLPWTCASRALQHLDPPAPLPLVIWHGMGDSCCNPLSMGAIKKMVEKKIPGIYVLSLEIGKTLMEDVENSFFLNVNSQVTTVCQALAKDPKLQQGYNAMGFSQGGQFLRAVAQRCPSPPMINLISVGGQHQGVFGLPRCPGESSHICDFIRKTLNAGAYSKVVQERLVQAEYWHDPIKEDVYRNHSIFLADINQERGINESYKKNLMALKKFVMVKFLNDSIVDPVDSEWFGFYRSGQAKETIPLQETSLYTQDRLGLKEMDNAGQLVFLATEGDHLQLSEEWFYAHIIPFLG [PPT1] | 0.426 | 55.1 | 55.2 | -0.105 | 0.0933 | -1.67
6 | MAAAAAAGEARRVLVYGGRGALGSRCVQAFRARNWWVASVDVVENEEASASIIVKMTDSFTEQADQVTAEVGKLLGEEKVDAILCVAGGWAGGNAKSKSLFKNCDLMWKQSIWTSTISSHLATKHLKEGGLLTLAGAKAALDGTPGMIGYGMAKGAVHQLCQSLAGKNSGMPPGAAAIAVLPVTLDTPMNRKSMPEADFSSWTPLEFLVETFHDWITGKNRPSSGSLIQVVTTEGRTELTPAYF [QDPR] | 0.236 | 55.5 | 55.5 | -0.0466 | -1.31 | -0.994
7 | MVWPWVAMASRWGPLIGLAPCCLWLLGAVLLMDASARPANHSSTRERVANREENEILPPDHLNGVKLEMDGHLNRGFHQEVFLGKDLGGFDEDAEPRRSRRKLMVIFSKVDVNTDRKISAKEMQRWIMEKTAEHFQEAMEESKTHFRAVDPDGDGHVSWDEYKVKFLASKGHSEKEVADAIRLNEELKVDEETQEVLENLKDRWYQADSPPADLLLTEEEFLSFLHPEHSRGMLRFMVKEIVRDLDQDGDKQLSVPEFISLPVGTVENQQGQDIDDNWVKDRKKEFEELIDSNHDGIVTAEELESYMDPMNEYNALNEAKQMIAVADENQNHHLEPEEVLKYSEFFTGSKLVDYARSVHEEF [SDF4] | 0.52 | 52.8 | 53.9 | -0.0276 | 2.12 | 3
8 | COL5A2 | -0.0207 | 54.6 | 57.9 | 0.0391 | 2.88 | 0.949
9 | MAAAANSGSSLPLFDCPTWAGKPPPGLHLDVVKGDKLIEKLIIDEKKYYLFGRNPDLCDFTIDHQSCSRVHAALVYHKHLKRVFLIDLNSTHGTFLGHIRLEPHKPQQIPIDSTVSFGASTRAYTLREKPQTLPSAVKGDEKMGGEDDELKGLLGLPEEETELDNLTEFNTAHNKRISTLTIEEGNLDIQRPKRKRKNSRVTFSEDDEIINPEDVDPSVGRFRNMVQTAVVPVKKKRVEGPGSLGLEESGSRRMQNFAFSGGLYGGLPPTHSEAGSQPHGIHGTALIGGLPMPYPNLAPDVDLTPVVPSAVNMNPAPNPAVYNPEAVNEPKKKKYAKEAWPGKKPTPSLLI [PPP1R8] | 0.0809 | 50.4 | 51.2 | -0.0793 | 0.0118 | -0.547
10 | MDFQHRPGGKTGSGGVASSSESNRDRRERLRQLALETIDINKDPYFMKNHLGSYECKLCLTLHNNEGSYLAHTQGKKHQTNLARRAAKEAKEAPAQPAPEKVKVEVKKFVKIGRPGYKVTKQRDSEMGQQSLLFQIDYPEIAEGIMPRHRFMSAYEQRIEPPDRRWQYLLMAAEPYETIAFKVPSREIDKAEGKFWTHWNRETKQFFLQFHFKMEKPPAPPSLPAGPPGVKRPPPPLMNGLPPRPPLPESLPPPPPGGLPLPPMPPTGPAPSGPPGPPQLPPPAPGVHPPAPVVHPPASGVHPPAPGVHPPAPGVHPPAPGVHPPTSGVHPPAPGVHPPAPGVHPPAPGVHPPAPGVHPPAPGVHPPPSAGVHPQAPGVHPAAPAVHPQAPGVHPPAPGMHPQAPGVHPQPPGVHPSAPGVHPQPPGVHPSNPGVHPPTPMPPMLRPPLPSEGPGNIPPPPPTN [SF3A2] | 0.0115 | 50 | 50.5 | 0.322 | -1.16 | -1.41
11 | KDM3B | 0.00792 | 48.6 | 49.8 | -0.108 | 0.937 | 2.62
12 | MAPKFPDSVEELRAAGNESFRNGQYAEASALYGRALRVLQAQGSSDPEEESVLYSNRAACHLKDGNCRDCIKDCTSALALVPFSIKPLLRRASAYEALEKYPMAYVDYKTVLQIDDNVTSAVEGINRMTRALMDSLGPEWRLKLPSIPLVPVSAQKRWNSLPSENHKEMAKSKSKETTATKNRVPSAGDVEKARVLKEEGNELVKKGNHKKAIEKYSESLLCSNLESATYSNRALCYLVLKQYTEAVKDCTEALKLDGKNVKAFYRRAQAHKALKDYKSSFADISNLLQIEPRNGPAQKLRQEVKQNLH [TOMM34] | 0.584 | 47.4 | 48.8 | 0.108 | 0.535 | 1.04
13 | NLE1 | -0.35 | 53 | 54.2 | 0.0775 | -1.88 | -4.55
14 | MRSRVAVRACHKVCRCLLSGFGGRVDAGQPELLTERSSPKGGHVKSHAELEGNGEHPEAPGSGEGSEALLEICQRRHFLSGSKQQLSRDSLLSGCHPGFGPLGVELRKNLAAEWWTSVVVFREQVFPVDALHHKPGPLLPGDSAFRLVSAETLREILQDKELSKEQLVAFLENVLKTSGKLRENLLHGALEHYVNCLDLVNKRLPYGLAQIGVCFHPVFDTKQIRNGVKSIGEKTEASLVWFTPPRTSNQWLDFWLRHRLQWWRKFAMSPSNFSSSDCQDEEGRKGNKLYYNFPWGKELIETLWNLGDHELLHMYPGNVSKLHGRDGRKNVVPCVLSVNGDLDRGMLAYLYDSFQLTENSFTRKKNLHRKVLKLHPCLAPIKVALDVGRGPTLELRQVCQGLFNELLENGISVWPGYLETMQSSLEQLYSKYDEMSILFTVLVTETTLENGLIHLRSRDTTMKEMMHISKLKDFLIKYISSAKNV [POLG2] | -0.0655 | – | 54.6 | 0.206 | 0.753 | 1.26
15 | ASNA1 | 0.349 | 53.4 | 54.6 | -0.258 | 0.0219 | 1.19
16 | MWTFLGIATFTYFYKKFGDFITLANREVLLCVLVFLSLGLVLSYRCRHRNGGLLGRQQSGSQFALFSDILSGLPFIGFFWAKSPPESENKEQLEARRRRKGTNISETSLIGTAACTSTSSQNDPEVIIVGAGVLGSALAAVLSRDGRKVTVIERDLKEPDRIVGEFLQPGGYHVLKDLGLGDTVEGLDAQVVNGYMIHDQESKSEVQIPYPLSENNQVQSGRAFHHGRFIMSLRKAAMAEPNAKFIEGVVLQLLEEDDVVMGVQYKDKETGDIKELHAPLTVVADGLFSKFRKSLVSNKVSVSSHFVGFLMKNAPQFKANHAELILANPSPVLIYQISSSETRVLVDIRGEMPRNLREYMVEKIYPQIPDHLKEPFLEATDNSHLRSMPASFLPPSSVKKRGVLLLGDAYNMRHPLTGGGMTVAFKDIKLWRKLLKGIPDLYDDAAIFEAKKSFYWARKTSHSFVVNILAQALYELFSATDDSLHQLRKACFLYFKLGGECVAGPVGLLSVLSPNPLVLIGHFFAVAIYAVYFCFKSEPWITKPRALLSSGAVLYKACSVIFPLIYSEMKYMVH [SQLE] | -0.21 | 52.7 | 53.3 | -0.0643 | -0.599 | -0.00194
17 | MAAAEAGGDDARCVRLSAERAQALLADVDTLLFDCDGVLWRGETAVPGAPEALRALRARGKRLGFITNNSSKTRAAYAEKLRRLGFGGPAGPGASLEVFGTAYCTALYLRQRLAGAPAPKAYVLGSPALAAELEAVGVASVGVGPEPLQGEGPGDWLHAPLEPDVRAVVVGFDPHFSYMKLTKALRYLQQPGCLLVGTNMDNRLPLENGRFIAGTGCLVRAVEMAAQRQADIIGKPSRFIFDCVSQEYGINPERTVMVGDRLDTDILLGATCGLKTILTLTGVSTLGDVKNNQESDCVSKKKMVPDFYVDSIADLLPALQG [PGP] | 0.536 | 56.8 | 58.2 | -0.00434 | -0.684 | -1.2
18 | MTVFFKTLRNHWKKTTAGLCLLTWGGHWLYGKHCDNLLRRAACQEAQVFGNQLIPPNAQVKKATVFLNPAACKGKARTLFEKNAAPILHLSGMDVTIVKTDYEGQAKKLLELMENTDVIIVAGGDGTLQEVVTGVLRRTDEATFSKIPIGFIPLGETSSLSHTLFAESGNKVQHITDATLAIVKGETVPLDVLQIKGEKEQPVFAMTGLRWGSFRDAGVKVSKYWYLGPLKIKAAHFFSTLKEWPQTHQASISYTGPTERPPNEPEETPVQRPSLYRRILRRLASYWAQPQDALSQEVSPEVWKDVQLSTIELSITTRNNQLDPTSKEDFLNICIEPDTISKGDFITIGSRKVRNPKLHVEGTECLQASQCTLLIPEGAGGSFSIDSEEYEAMPVEVKLLPRKLQFFCDPRKREQMLTSPTQ [AGK] | 0.0337 | 53.6 | 53.6 | -0.034 | -0.493 | -1.02
19 | SDE2 | 0.563 | 49.5 | 49.5 | 0.0378 | 2.03 | 1.98
